Ends that are not written are not given here.
What was measured:
chloroplast DNA = settings: in vivo
Procedure: Chloroplasts were isolated from Arabidopsis leaves through a centrifugation gradient method in sucrose buffer.^1-3 Intact chloroplasts were isolated from leaves exposed to targeted and non-targeted CDs and pATV1-SWCNT, and buffer as control (10 mM TES pH 7.3) in 0.1% Silwet (v/v) for one day or five days. Following foliar spray with nanomaterials as explained above, 4 g of leaf tissue was collected from seven plants per treatment. Treated tissue was harvested, and ground in ice-cold 1× chilled sucrose buffer (pH 7.3, 28 mM Na2HPO4, 22 mM KH2PO4, 2.5 mM MgCl2, 400 mM sucrose, and 10 mM KCl). […]
DNA was extracted from plant leaf tissue and prepared using a Quick-DNA Plant/Seed DNA Miniprep kit (Zymo) in leaf samples treated with nanomaterials from one to five days. […] The DNA extraction was performed according to the manufacturer's instructions (zymoresearch.com) and concentrations were measured using a Nanodrop ND-1000 Spectrophotometer. […]
We determined the amount of oxidative DNA damage in plant leaves treated with nanomaterials for one day or five days using an enzyme-linked immunosorbent assay (ELISA) for 8-hydroxydeoxyguanosine (8-OHdG). The OxiSelect™ Oxidative DNA Damage ELISA Kit (Cat# STA-320, Cell Biolabs, inc.) quantifies the amount of 8-OHdG in isolated DNA samples from plant leaf tissue or isolated chloroplast suspensions. […]

isolated chloroplasts = experiment: Intact chloroplast analysis by DIC microscopy; set-up: species or system Arabidopsis thaliana; settings: 1 and 5 days, 20 mg/L / 2 mg/L
Text: Interactions of Targeted Carbon Nanostructures with Plant Cell and Chloroplast Membranes. Damage to plant lipid membranes may cause ion and molecule permeability changes across the membrane, interruption of metabolic processes, intracellular signaling, and trafficking of biomolecules.^65,66 The application of targeted nanostructures with high charge allows penetration of plant cell barriers and localization inside organelles that could cause disruption in lipid membrane integrity. Plant cell membrane intactness in leaves treated with TP-β-CDs or TP-pATV1-SWCNTs (Table 1) was assessed by staining dead cells with propidium iodide (PI) dye followed by imaging under confocal microscopy (FIG. 7A). PI is a nonpermeable dye that only crosses the cell membranes when they are damaged. The overall percentage of intact cells without PI stained nuclei was calculated relative to the total number of cells (FIG. 7B). […] Both TP-β-CDs and TP-pATV1-SWCNTs maintained more than 93% of plant cells with intact membranes after 1 and 5 days of exposure, similar to controls without nanoparticles (FIG. 7B). […]
Identification of intact chloroplast was performed as reported in previous studies^4,5 with some modifications. […] The average from ten images from each of the seven biological replicates was quantified for calculating the average percentage of intact chloroplasts.

[1] = test system: chloroplasts in Arabidopsis leaves; experiment: Confocal colocalization of nanomaterials with chloroplasts after foliar spray; assay type: in vivo, Arabidopsis thaliana
Procedure: In Vivo Imaging of Chloroplast Targeted Nanomaterials. Confocal fluorescence microscopy imaging was used to determine the colocalization between chloroplasts in Arabidopsis leaves and both targeted and nontargeted β-CDs and CY3-ds(GT)15 (SEQ ID NO: 6) DNA coated SWCNT (FIG. 3A,B). Nanomaterials were foliar sprayed on whole plants in a formulation containing 0.1% Silwet (v/v) (Table 1). Control confocal images of leaves treated with only 10 mM TES buffer have no background autofluorescence in CD and CY3-ds(GT)15 (SEQ ID NO: 6) DNA emission channels (FIG. 12). The level of colocalization of fluorescent emission from nanocarriers with chloroplasts was determined by Manders' coefficient analysis (COLOC2, ImageJ) (FIG. 3C). The localization of targeted nanomaterials (TP-β-CD and TP-CY3-ds(GT)15-SWCNT) with chloroplasts in leaf mesophyll cells was higher compared to nontargeted materials lacking the targeting peptide (β-CD and CY3-ds(GT)15-SWCNT). […] Previously, we reported an in vivo increase in colocalization of chloroplasts with heavy-metal-based quantum dots functionalized with chloroplast targeting biorecognition peptides,^16 indicating the robustness of this approach for a variety of targeted nanomaterials. […]
Confocal Fluorescence Microscopy. […]

For “TP-β-CD: carbon dots with β-cyclodextrin molecular baskets covalently bonded to chloroplast targeting peptide MASSMLSSATMVGGC (SEQ ID NO:5) (also: covalently bonded to carbon dots with β-cyclodextrin, site not given here)”, the “oxidative damage to isolated chloroplast DNA” value (chloroplast DNA) was “not affected”, the chloroplast membrane intactness (isolated chloroplasts) was “did not affect chloroplast membrane damage” and the “colocalization rates of nanomaterials with chloroplasts” value ([1]; foliar spray, CD 20 mg/L, ds(GT)15-SWCNT 2 mg/L, Manders' coefficient, FIG. 3C) was 70.0±9.46%. For the same substance, the “delivery, % of chloroplasts in leaves” value ([1]; summary of Example 1) was 70%.

— patent US20230313217A1, “CHLOROPLAST TARGETING PEPTIDES AND CONJUGATES AND COMPOSITIONS THEREOF” (The Regents of the University of California, priority 2021, published 2023)
